The DeepSol protein solubility set

Assay: soluble on expression in E. coli; label from the status in PepcDB or PDB records

Sequence | soluble on expression in E. coli
SLSIELDLQLAVENEHGLPSEAEFALWLTRTITPFQAQAEVTVRIVDEAESHALNLNYRGKDKPTNVLSFPFEAPSGMEMDLLGDLVICRQVVEREAIEQNKPLQAHWAHMVVHGSLHLLGYDHIEDDEAEEMESLETEIMQEMGFTDPYLAEKE | not soluble
SLSTIGSMMSIYSEAGDFGNIFVTGRIAFSLKYEQQTQSLVVHVKECHQLAYADEAKKRSNPYVKTYLLPDKSRQGKRKTSIKRDTVNPLYDETLRYEIPESLLAQRTLQFSVWHHGRFGRNTFLGEAEIQMDSWKLDKKLDHCLPLHGKISAESPTGLPSHKGELVVSLKYIPASKTPVGGDRKKSKGGEGGELQVWIKEAKNLTAAKAGGTSDSFVKGYLLPMRNKASKRKTPVMKKTLNPHYNHTFVYNGVRLEDLQHMCLELTVWDREPLASNDFLGGVRLGVGTGISNGEVVDWMDSTGEEVSLWQKMRQYPGSWAEGTLQLRSSMAKQKLG | soluble
SLSWDSVVERIRIFLVESPIKMARLQGVGNVKGSVKRVLLEVTSADGIVGWGEAAPWEVFTGTPEAAFSALDIYLRPLILGAPIKRVRELMARMDKMLVGHGEAKAAVEMALLDILGKATGLSVADLLGGRVRDRIPLSFSIADPDFDADLERMRAMVPAGHTVFKMKTGVKPHAEELRILETMRGEFGERIDLRLDFNQALTPFGAMKILRDVDAFRPTFIEQPVPRRHLDAMAGFAAALDTPILADESCFDAVDLMEVVRRQAADAISVKIMKCGGLMKAQSLMAIADTAGLPGYGGTLWEGGIALAAGTQLIAATPGISLGCEFYMPHHVLTEDVLEERIANSAGHVIVPDGPGLGISISEASLRGNAKILAER | soluble
SLVASGYPLSQTFGHGDIHFLPPELADARTSKIKVPFQSLLCDGEDEFRKGARYVLREGVDFIKIFVTGGVASQKDKPEFPQMTRGEIAAVVEEARRAGRLVHAHAESSEGYINAVEEGVKTLAHGMDLNQDAINLSVEKDVTLIPTLSIVDVALKFGPSNNLPEWMLEKLKEVHEIHAESIKRAYRERVRLATGTDFFIGAKEVQLYGLNSLEIKLLVGLGVKPMDALKAVIKEGEIVKQS | not soluble
SLWASADAIQQKLADLEKRSGGRLGVALINTADDSQTLYRGDERFAMCSTGKVMAAAAVLKQSESNPEVVNKRLEIKKSDLVVWSPITEKHLQSGMTLAELSAAALQYSDNTAMNKMISYLGGPEKVTAFAQSIGDVTFRLDRTEPALNSAIPGDKRDTTTPLAMAESLRKLTLGNALGEQQRAQLVTWLKGNTTGGQSIRAGLPASWAVGDKTGAGDYGTTNDIAVIWPENHAPLVLVTYFTQPQQDAKSRKEVLAAAAKIVTEGL | soluble
SLYRIVLGKVSTLSAAPLPPGLREQAPQGPRRERWLAGRALLSHTLSPLPEIIYGEQGKPAFAPETPLWFNLSHSGDDIALLLSDEGEVGCDIEVIRPRANWRWLANAVFSLGEHAEMDAVHPDQQLEMFWRIWTRKEAIVKQRGGSAWQIVSVDSTYHSSLSVSHCQLENLSLAICTPTPFTLTADSVQWIDSVN | not soluble
SMANHLVKPDSRNCKRARELEPQVSDSPQVSSLGKSESSLSEASGLFYKEEALEKDLSDMSKEINLMLSTYAKILSERAAVDASYIDEIDGLFKEANIIENFLVQKREFLKQRFTVITNTLHK | soluble
SMDSSALPDPGFQKITLSSSSEEYQKVWNLFNRTLPFYFVQKIERVQNLALWEVYQWQKGQMQKQNGGKAVDERQLFHGTSAIFVDAICQQNFDWRVCGVHGTSYGKGSYFARDAAYSHHYSKSDTQTHTMFLARVLVGEFVRGNASFVRPPAKEGWSNAFYDSCVNSVSDPSIFVIFEKHQVYPEYVIQYTTSSKPS | soluble
SMGGPQYGIAREDVVLNRILGEGFFGEVYEGVYTNHKGEKINVAVKTCKKDCTLDNKEKFMSEAVIMKNLDHPHIVKLIGIIEEEPTWIIMELYPYGELGHYLERNKNSLKVLTLVLYSLQICKAMAYLESINCVHRDIAVRNILVASPECVKLGDFGLSRYIEDEDYYKASVTRLPIKWMSPESINFRRFTTASDVWMFAVCMWEILSFGKQPFFWLENKDVIGVLEKGDRLPKPDLCPPVLYTLMTRCWDYDPSDRPRFTELVCSLSDVYQMEKDIAME | soluble
SMKYKLNVLLAEIALIGTGNHYHEEANCIAEWLHLKGEEEAVQLIRLSSLMNRGDYASALQQGNKLAYPDLEPWLALCEYRLGLGSALESRLNRLARSQDPRIQTFVNGMREQLKT | soluble
SNAFHPVYSVQLEQKLVEKFNLKRALISLDQPNTNEQRKQVAALVSSYLNNNLQEGMAVAVGQGQNVAAVADHAGIVTQRNARFVSAIGGTHRSGDIINADHICRRLAKKYGGSSETLYAPAYVNDPSLRSAFMEHATIKETLSQARKAEFALVGIGDMDENSHMVKLGFFTPKEFVEARLNDGIVGDIGGFDFFKLDGTDADTLMRGRVIGLEMEDLRQIPNVVAMASESRKALSIMGALRTGVIDVLATSVSCAMALLNLAENEE | soluble
SNAGLIDESEQRLVDNIFEFEEKKIREIMVPRTDMVCIYESDSEEKILAILKEEGVTRYPVCRKNKDDILGFVHIRDLYNQKINENKIELEEILRDIIYISENLTIDKALERIRKEKLQLAIVVDEYGGTSGVVTIEDILEEIVGEIQ | soluble
SNAKIIGYARVSFNAQKDDLERQIQLIKSYAEENGWDIQILKDIGSGLNEKRKNYKKLLKMVMNRKVEKVIIAYPDRLTRFGFETLKEFFKSYGTEIVIINKKHKTPQEELVEDLITIVSHFAGKLYGMHSHKYKKLTKTVKEIVREEDAKEKE | soluble
SNAMHSDALSWGHGPRLFEVFLEPTCPFSVKAFFKLDDLLAQAGEDNVTVRIRLQSQPWHMFSGVIVRCILAAATLEGGKESAKAVMTAVASHREEFEFEHHAGGPNLDATPNDIIARIERYSGLALAEAFANPELEHAVKWHTKYARQNGIHVSPTFMINGLVQPGMSSGDPVSKWVSDIG | soluble
SNAMIVGIGIDIIELNRIEKMLDGKLKFMERILTENERNVAKGLKGSRLTEFVAGRFAAKEAYSKAVGTGIGKEVSFLDIEVRNDDRGKPILITSTEHIVHLSISHSKEFAVAQVVLESSSS | soluble
SNAMKAIIKEDVQASLERYADRPVYIHLETTTGSYSAHLNEKNMTVVAYIRNAKVTYHQAKIKGNGPYRVGLKTEEGWIYAEGLTEYTVDEENRLLMAGHLPGGKLAISLQISEKPFTV | soluble
SNAMKLIAIDLDGTLLNSKHQVSLENENALRQAQRDGIEVVVSTGRAHFDVMSIFEPLGIKTWVISANGAVIHDPEGRLYHHETIDKKRAYDILSWLESENYYYEVFTGSAIYTPQNGRELLDVELDRFRSANPEADLSVLKQAAEVQYSQSGFAYINSFQELFEADEPIDFYNILGFSFFKEKLEAGWKRYEHAEDLTLVSSAEHNFELSSRKASKGQALKRLAKQLNIPLEETAAVGDSLNDKSMLEAAGKGVAMGNAREDIKSIADAVTLTNDEHGVAHMMKHLL | soluble
SNAMRLVADSACDIKELRGMVFKAVPLTISTDNEEFCDDGQLDIHRMLDILEKHKGRSYTACPGIDAWLEAFGDDDEIFVVTITAGMSGTYNSAMAARAVYLEEHPQAKVRVIDSKSTGPQMRIILEQLQQMIEEGKKFEEIDGAIDAYMQKTRLFCSLKSLHNLAQNGRVSKVVASAAEVLGISVIGTASSHGTLEAIGKCRGDKKLLVKLQALLDDAGYEGGKLRICHVENEALADKIADMIKQAYGTTDVCVYKAGGLCSYYAERGGIILSCETK | soluble
SNAMVEAIIFDMDGVLFDTEKYYYDRRASFLGQKGISIDHLPPSFFIGGNTKQVWENILRDEYDKWDVSTLQEEYNTYKQNNPLPYKELIFPDVLKVLNEVKSQGLEIGLASSSVKADIFRALEENRLQGFFDIVLSGEEFKESKPNPEIYLTALKQLNVQASRALIIEDSEKGIAAGVAADVEVWAIRDNEFGMDQSAAKGLLDSLTDVLDLI | soluble
SNASAFTEGTDYMVLEKPIPNADKTLIKVFSYACPFCYKYDKAVTGPVSDKVADLVTFTPFHLETKGEYGKQASEVFAVLIAKDKAAGISLFDAKSQFKKAKFAWYAAYHDKKERWSDGKDPAAFIKTGLDAAGMSQADFEAALKDPAVQETLEKWKAAYDVAKIQGVPAYVVNGKYLIYTKNIKSIDSMAELVRELATKK | soluble
SNKDLVHIGVLQYVEHPSLSATRKGFIEELKEEGYVDGKNIKIDYQNAQGDQSNLQTISQSLIEDNDVMLAIATPAAQSLSSLTKGKPILFTAVTDPVSAKLVKSMDNVGGNVTGTSDMSPINKQVELLKKVFPNTKKVGIMYTTSERNSEVQVEEAKKYFKEAGIETVIKGISSTNDIQDTAKSLMSQTEVIFIPTDNTIVSAINTLVDLSKETKVPVVGSDAGSVEKGVLFTYGTNYEALGRQTGKLAGRVLRGEKVKDIDAEYPKTLNVVVNHDMAKKLGIDVSSISDEESKVSTKDDKPIAK | not soluble
SNSLHWPTSLPSGDAFSSVGTHRFVQKVEEMVQNHMTYSLQDVGGDANWQLVVEEGEMKVYRREVEENGIVLDPLKATHAVKGVTGHEVCNYFWNVDVRNDWETTIENFHVVETLADNAIIIYQTHKRVWPASQRDVLYLSVIRKIPALTENDPETWIVCAFSVDHDSAPLNNRCVRAKINVAMICQTLVSPPEGNQEISRDNILCKITYVANVNPGGWAPASVLRAVAKREYPKFLKRFTSYVQEKTAGKPILF | soluble
SPCKYSRSEVVLTFFERSPLDQVLKNDNVHKIQPSFQSPVKISEIMRSNGFCLANTETIVIDHSIPNGRDQQLGVDQTEHLFENGSEFPSELEDGDDPAAYVTNLSYYHLVPFETDIWD | soluble
SPINPYKDHMSVLKAYYAMNMEPNSDELLKISIAVGLPQEFVKEWFEQRKVYQYSNSR | soluble
SPRPPDDPGFGPHQRLEKLDSLLSDYDILSLSNIQQHSVRKRDLQTSTHVETLLTFSALKRHFKLYLTSSTERFSQNFKVVVVDGKNESEYTVKWQDFFTGHVVGEPDSRVLAHIRDDDVIIRINTDGAEYNIEPLWRFVNDTKDKRMLVYKSEDIKNVSRLQSPKVCGYLKVDNEELLPKGLVDREPPEGKT | soluble
SPVRTECPPPAGASTTSAASLIPPPPINTQQPGVATSLLYSGSKFRGHQKSKGNSYDVEVVLQHVDTGNSYLCGYLKIKGLTEEYPTLTTFFEGEIISKKHPFLTRKWDADEDVDRKHWGKFLAFYQYAKSFNSDDFDYEELKNGDYVFMRWKEQFLVPDHTIKDISGASFAGFYYICFQKSAASIEGYYYHRSSEWYQSLNLTHVPEHSAPIYEFR | soluble
SQFDILCKTPPKVLVRQFVERFERPSGEKIASCAAELTYLCWMITHNGTAIKRATFMSYNTIISNSLSFDIVNKSLQFKYKTQKATILEASLKKLIPAWEFTIIPYNGQKHQSDITDIVSSLQLQFESSEEADKGNSHSKKMLKALLSEGESIWEITEKILNSFEYTSRFTKTKTLYQFLFLATFINCGRFSDIKNVDPKSFKLVQNKYLGVIIQCLVTETKTSVSRHIYFFSARGRIDPLVYLDEFLRNSEPVLKRVNRTGNSSSNKQEYQLLKDNLVRSYNKALKKNAPYPIFAIKNGPKSHIGRHLMTSFLSMKGLTELTNVVGNFSDKRASAVARTTYTHQITAIPDHYFALVSRYYAYDPISKEMIALKDETNPIEEWQHIEQLKGSAEGSIRYPAWNGIISQEVLDYLSSYINRRIGHHHHHH | soluble
SQVARWLGLDIPSPPIGSLFGVEIPEETGTKLEERVVDASMLSHGDLLMNLSLRDEELVILVRRGEGYRVPKGRMHLQVGDVLLIVSEKNLSQTLTSGDPENHPGLLQRLKHRLLRR | not soluble
